# Patent US20090118184A1 (UNIVERSITY OF ROCHESTER, published 2009)
# T1: factor VIIIa A1/A3C1C2 dimer, Glu113Ala (human, UniProt P00451 20-391; P00451 1709-2351)
# T1 chain 1: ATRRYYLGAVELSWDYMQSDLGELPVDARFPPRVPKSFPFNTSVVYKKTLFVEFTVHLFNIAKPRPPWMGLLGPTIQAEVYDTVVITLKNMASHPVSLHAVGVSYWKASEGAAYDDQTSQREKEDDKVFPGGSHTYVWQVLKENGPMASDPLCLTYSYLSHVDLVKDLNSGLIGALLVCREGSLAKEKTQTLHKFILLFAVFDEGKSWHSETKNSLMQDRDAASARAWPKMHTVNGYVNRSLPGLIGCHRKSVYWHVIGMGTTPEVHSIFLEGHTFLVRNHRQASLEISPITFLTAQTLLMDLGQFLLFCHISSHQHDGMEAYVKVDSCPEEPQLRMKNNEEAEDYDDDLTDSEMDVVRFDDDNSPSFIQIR
# T1 chain 2: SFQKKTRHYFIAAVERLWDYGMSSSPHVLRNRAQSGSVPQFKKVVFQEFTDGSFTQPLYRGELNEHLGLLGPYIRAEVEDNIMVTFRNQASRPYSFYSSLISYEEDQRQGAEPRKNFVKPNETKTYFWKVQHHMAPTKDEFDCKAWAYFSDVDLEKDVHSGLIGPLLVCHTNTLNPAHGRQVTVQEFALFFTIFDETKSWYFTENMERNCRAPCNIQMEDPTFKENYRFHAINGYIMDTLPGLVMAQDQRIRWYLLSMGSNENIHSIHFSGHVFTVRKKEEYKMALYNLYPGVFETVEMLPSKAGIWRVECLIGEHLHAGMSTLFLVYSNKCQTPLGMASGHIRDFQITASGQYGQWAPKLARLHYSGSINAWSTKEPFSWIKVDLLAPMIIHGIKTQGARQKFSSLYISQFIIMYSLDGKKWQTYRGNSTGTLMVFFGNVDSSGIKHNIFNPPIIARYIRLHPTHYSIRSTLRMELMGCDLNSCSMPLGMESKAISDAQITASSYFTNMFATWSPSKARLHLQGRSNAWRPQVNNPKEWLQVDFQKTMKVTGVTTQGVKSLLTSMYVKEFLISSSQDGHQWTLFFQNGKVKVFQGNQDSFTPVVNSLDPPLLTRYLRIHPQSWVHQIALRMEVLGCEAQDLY
# T2: factor VIIIa A1/A3C1C2 dimer, Glu1984Ala (human, UniProt P00451 20-391; P00451 1709-2351)
# T2 sequence 1: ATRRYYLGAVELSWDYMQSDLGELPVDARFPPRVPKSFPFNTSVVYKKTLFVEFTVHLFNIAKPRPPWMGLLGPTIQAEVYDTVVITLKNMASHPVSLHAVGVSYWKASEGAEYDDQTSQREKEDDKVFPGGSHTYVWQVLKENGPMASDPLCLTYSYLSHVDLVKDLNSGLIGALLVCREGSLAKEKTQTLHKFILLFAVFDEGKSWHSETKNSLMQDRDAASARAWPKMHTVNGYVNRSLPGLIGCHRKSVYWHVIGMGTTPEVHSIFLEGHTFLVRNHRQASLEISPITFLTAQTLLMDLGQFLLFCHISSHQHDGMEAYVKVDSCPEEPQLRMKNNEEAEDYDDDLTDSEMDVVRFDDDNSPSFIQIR
# T2 sequence 2: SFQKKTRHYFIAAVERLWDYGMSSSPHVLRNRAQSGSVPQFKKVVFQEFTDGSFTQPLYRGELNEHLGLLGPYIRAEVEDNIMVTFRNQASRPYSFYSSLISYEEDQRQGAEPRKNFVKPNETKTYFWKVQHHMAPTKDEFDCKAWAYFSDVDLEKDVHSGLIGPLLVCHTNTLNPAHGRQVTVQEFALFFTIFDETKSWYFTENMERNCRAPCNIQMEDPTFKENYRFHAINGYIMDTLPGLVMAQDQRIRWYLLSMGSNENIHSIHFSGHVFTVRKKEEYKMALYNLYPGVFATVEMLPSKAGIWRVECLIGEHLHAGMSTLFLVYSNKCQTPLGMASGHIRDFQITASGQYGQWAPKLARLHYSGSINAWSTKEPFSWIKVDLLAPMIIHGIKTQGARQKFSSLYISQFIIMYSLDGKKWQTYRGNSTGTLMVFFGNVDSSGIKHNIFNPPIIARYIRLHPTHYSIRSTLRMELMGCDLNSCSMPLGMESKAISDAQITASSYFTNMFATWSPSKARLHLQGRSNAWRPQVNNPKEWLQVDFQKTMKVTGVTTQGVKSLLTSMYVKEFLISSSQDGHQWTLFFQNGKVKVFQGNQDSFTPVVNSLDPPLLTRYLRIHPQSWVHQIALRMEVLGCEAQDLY
# T3: factor VIIIa A1/A3C1C2 dimer, wild type (human, UniProt P00451 20-391; P00451 1709-2351)
# T3 sequence 1: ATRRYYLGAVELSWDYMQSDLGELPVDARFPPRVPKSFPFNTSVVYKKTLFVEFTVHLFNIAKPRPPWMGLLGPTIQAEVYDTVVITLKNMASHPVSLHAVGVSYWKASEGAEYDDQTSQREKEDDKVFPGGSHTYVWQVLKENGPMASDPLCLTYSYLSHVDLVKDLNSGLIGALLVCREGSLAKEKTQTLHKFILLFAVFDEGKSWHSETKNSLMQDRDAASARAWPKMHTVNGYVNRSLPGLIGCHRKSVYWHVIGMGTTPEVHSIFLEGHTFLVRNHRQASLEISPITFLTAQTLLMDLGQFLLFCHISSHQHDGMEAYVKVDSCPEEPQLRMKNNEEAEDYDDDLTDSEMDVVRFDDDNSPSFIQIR
# T3 sequence 2: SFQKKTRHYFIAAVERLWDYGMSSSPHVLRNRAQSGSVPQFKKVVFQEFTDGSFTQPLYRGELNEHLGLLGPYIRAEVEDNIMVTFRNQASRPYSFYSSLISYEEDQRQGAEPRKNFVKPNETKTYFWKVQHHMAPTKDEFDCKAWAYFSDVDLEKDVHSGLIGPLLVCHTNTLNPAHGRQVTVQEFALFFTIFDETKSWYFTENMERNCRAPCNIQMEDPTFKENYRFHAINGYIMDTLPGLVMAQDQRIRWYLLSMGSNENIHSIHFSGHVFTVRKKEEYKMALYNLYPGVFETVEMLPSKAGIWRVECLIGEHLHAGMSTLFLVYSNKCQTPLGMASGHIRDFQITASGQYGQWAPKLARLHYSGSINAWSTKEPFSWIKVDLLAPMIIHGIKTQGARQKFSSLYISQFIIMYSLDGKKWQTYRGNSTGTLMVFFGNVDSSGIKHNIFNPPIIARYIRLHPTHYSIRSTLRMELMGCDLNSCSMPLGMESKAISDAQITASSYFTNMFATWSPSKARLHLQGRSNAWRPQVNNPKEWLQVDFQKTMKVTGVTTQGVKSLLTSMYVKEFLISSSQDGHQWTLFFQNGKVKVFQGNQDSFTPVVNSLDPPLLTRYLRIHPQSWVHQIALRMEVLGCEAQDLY
# T4: factor VIIIa A1/A3C1C2 dimer, Glu1984Val (human, UniProt P00451 20-391; P00451 1709-2351)
# T4 sequence 1: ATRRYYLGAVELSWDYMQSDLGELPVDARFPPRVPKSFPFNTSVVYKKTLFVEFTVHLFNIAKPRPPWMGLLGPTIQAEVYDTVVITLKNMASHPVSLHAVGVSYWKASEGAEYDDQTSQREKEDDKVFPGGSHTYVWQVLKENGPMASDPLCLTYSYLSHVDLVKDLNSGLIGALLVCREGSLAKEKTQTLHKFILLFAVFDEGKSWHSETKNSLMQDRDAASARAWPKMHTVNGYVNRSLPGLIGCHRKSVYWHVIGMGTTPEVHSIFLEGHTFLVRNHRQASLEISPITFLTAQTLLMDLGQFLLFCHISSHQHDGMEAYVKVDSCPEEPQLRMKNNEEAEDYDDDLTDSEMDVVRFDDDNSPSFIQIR
# T4 sequence 2: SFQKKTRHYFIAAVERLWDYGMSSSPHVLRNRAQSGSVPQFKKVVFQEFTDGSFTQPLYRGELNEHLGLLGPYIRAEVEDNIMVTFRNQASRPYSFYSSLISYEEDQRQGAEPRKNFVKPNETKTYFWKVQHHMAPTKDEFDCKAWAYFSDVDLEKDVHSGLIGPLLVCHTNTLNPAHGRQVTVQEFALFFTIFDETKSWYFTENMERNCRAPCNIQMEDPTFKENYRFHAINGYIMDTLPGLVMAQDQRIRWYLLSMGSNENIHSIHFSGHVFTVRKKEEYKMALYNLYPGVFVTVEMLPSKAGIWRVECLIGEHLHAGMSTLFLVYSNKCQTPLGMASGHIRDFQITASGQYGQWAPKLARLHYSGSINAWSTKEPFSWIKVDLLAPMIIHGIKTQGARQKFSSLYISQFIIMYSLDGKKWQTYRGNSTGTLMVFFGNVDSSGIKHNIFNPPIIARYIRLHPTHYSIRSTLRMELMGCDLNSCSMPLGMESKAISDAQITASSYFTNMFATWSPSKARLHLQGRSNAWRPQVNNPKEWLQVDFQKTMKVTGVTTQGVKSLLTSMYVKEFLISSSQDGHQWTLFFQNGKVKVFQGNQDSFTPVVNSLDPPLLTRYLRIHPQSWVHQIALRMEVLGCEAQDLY
# Tests used:
# Assay in all cases: cell-based or functional assay
# [1] = biological target: T1, factor VIIIa A1/A3C1C2 dimer, Glu113Ala
# [2] = biological target: T2, factor VIIIa A1/A3C1C2 dimer, Glu1984Ala
# [3] = biological target: T3, factor VIIIa A1/A3C1C2 dimer, wild type
# [4] = biological target: T4, factor VIIIa A1/A3C1C2 dimer, Glu1984Val
# [5] = biological target: T2, factor VIIIa A1/A3C1C2 dimer, Glu1984Ala; remark: listed apart in the source
# [6] = biological target: T4, factor VIIIa A1/A3C1C2 dimer, Glu1984Val; remark: listed apart in the source
# [7] = biological target: T3, factor VIIIa A1/A3C1C2 dimer, wild type; remark: listed apart in the source
binder,measurement,setting,value
"factor VIIIa A2 subunit, Glu665Ala (other) SVAKKHPKTWVHYIAAEEEDWDYAPLVLAPDDRSYKSQYLNNGPQRIGRKYKKVRFMAYTDETFKTREAIQHESGILGPLLYGEVGDTLLIIFKNQASRPYNIYPHGITDVRPLYSRRLPKGVKHLKDFPILPGEIFKYKWTVTVEDGPTKSDPRCLTRYYSSFVNMERDLASGLIGPLLICYKESVDQRGNQIMSDKRNVILFSVFDENRSWYLTENIQRFLPNPAGVQLEDPEFQASNIMHSINGYVFDSLQLSVCLHEVAYWYILSIGAQTDFLSVFFSGYTFKHKMVYADTLTLFPFSGETVFMSMENPGLWILGCHNSDFRNRGMTALLKVSSCDKNTGDYYEDSYEDISAYLLSKNNAIEPR","Decay rate relative to wild type, Factor VIIIa (1.5 nM, factor IXa absent)",[1],0.54 relative to wild type
same,"Decay rate, Factor VIIIa (1.5 nM factor VIIIa, factor IXa absent)",[1],0.0754 min⁻¹
same,"Decay rate relative to wild type, Factor VIIIa (1.5 nM, factor IXa absent)",[2],0.93 relative to wild type
same,"Decay rate, Factor VIIIa (1.5 nM factor VIIIa, factor IXa absent)",[2],0.13 min⁻¹
same,"Decay rate relative to wild type, Factor VIIIa (1.5 nM, factor IXa absent)",[3],0.6 relative to wild type
same,"Decay rate, Factor VIIIa (1.5 nM factor VIIIa, factor IXa absent)",[3],0.0834 min⁻¹
same,"Decay rate relative to wild type, Factor VIIIa (1.5 nM, factor IXa absent)",[4],0.9 relative to wild type
same,"Decay rate, Factor VIIIa (1.5 nM factor VIIIa, factor IXa absent)",[4],0.127 min⁻¹
same,factor VIIIa decay rate relative to the better single mutation of the pairing,[5],~2.2 fold
same,factor VIIIa decay rate relative to the better single mutation of the pairing,[6],~2.7 fold
same,"Factor VIIIa Decay relative to the WT value, Factor IXa absent",[7],0.62 relative to WT
same,"Factor VIIIa Decay relative to the WT value, Factor IXa present",[7],0.51 relative to WT
same,"Factor VIIIa Decay, Factor IXa absent",[7],0.052 min⁻¹
same,"Factor VIIIa Decay, Factor IXa present",[7],0.0078 min⁻¹
